Where a chain is given by its changes, count along the chain named.
B1: 75110_08H11A (antibody, V domains shown)
VH: EVQLVESGGGLVQPGGSLRLSCAASGFTFSSYDMHWVRQATGKGLEWVSTIGTAGDTYYPGSVKGRFTISRENAKNSLYLQMNSLRAGDTAVYYCARGGYSYYGMDVWGQGTTVTVSS
VL: EIVLTQSPGTLSLSPGERATLSCGASQSVSSTYLAWYQQKPGQAPRLLIYGASSRATGIPDRFSGSGSGTDFTLTISRLEPEDFAVYYCQQFGSSPFTFGPGTKVDIK
notes: Tested as non-clonal hybridoma supernatant from AlivaMab Mouse Kappa mice, detected with anti-mouse Fc and anti-human Kappa
B2: 75110_13C07A (antibody, V domains shown)
VH: B1 VH with G10V, S31N, I69L, N83H, G99A, S101G
VL: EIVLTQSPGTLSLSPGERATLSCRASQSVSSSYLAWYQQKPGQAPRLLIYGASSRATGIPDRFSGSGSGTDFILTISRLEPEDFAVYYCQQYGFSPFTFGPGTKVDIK
notes: as for B1
B3: 75110_08H06A (antibody, V domains shown)
VH: B1 VH with S31N, S101D
VL: B1 VL with G24R, V29I, S30T, T32I, Q38R, F92Y
notes: as for B1
B4: 75110_10N21A (antibody, V domains shown)
VH: B1 VH with A40V, S101Y
VL: B1 VL with G24R, V29F, S30I, T32S, E80D, F92S, S94N, I107V
notes: as for B1
B5: 75110_14H13A (antibody, V domains shown)
VH: B1 VH with S31N, E72K, N83I, Y100D, S101Y
VL: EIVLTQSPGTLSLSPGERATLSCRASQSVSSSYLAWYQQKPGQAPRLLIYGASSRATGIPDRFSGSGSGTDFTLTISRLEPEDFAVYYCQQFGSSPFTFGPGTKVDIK
notes: as for B1
B6: 75110_01H18A (antibody, V domains shown)
VH: QVQLQQWGAGLLKPSETLSLTCAVYGGSFSGYYWSWIRQSPGKGLEWIGEINQSGSTNYNPSLKSRVTISVDTSKNQFSLKLSSVTAADTAVYYCARVINWFDSWGQGTLVTVSS
VL: DIQMTQSPSSVSASVGDRVTITCRASQGISSWLAWYQQKPGKAPKLLIYAASSFQSGVPSRFSGSGSGTDFTLTISSLQTEDFATYYCQQANSFPYTFGQGTRLEIK
notes: as for B1
B7: 75110_10K21A (antibody, V domains shown)
VH: EVQLVESGGGLVQPGGSLRLSCAASGFTFSSYWMTWVRQAPGKGLEWVANIKQDGSEKYYVDSVKGRFTISRDNAKNSLYLQMNSLRAEDTAVYYCVRDRYDALDIWGQGTMVTVSS
VL: AIQMTQSPSSLSASVGDRVTITCRASQGIRNDLNWYQQKPGKAPKLLIYAASSLQSGVPSRFSGSGSGTDFTLTISSLQAEDFATYYCLKDYNYPYTFGQGTKLEIK
notes: as for B1
B8: 75110_05A11A (antibody, V domains shown)
VH: EVQLVESGGGLVKPGGSLTLSCAASGFTFSNTWMSWVRQAPGKGLEWVGRIKSKIDGGTTDYAAPVKGRFTISRDDSKNTLYLQMNSLKTEDTAVYYCTTSGTYSSGWGLFDYWGQGTLVTVSS
VL: DIQMTQSPSSLSASVGDRVTITCQASQDISNYLNWYQQKPGKAPKLLIYDTSNLEAGVPSRFSGSGSGTHFTLTISSLQPEDIATYYCQQYDNLPFTFGGGTRVEIK
notes: Tested as antibody purified from AlivaMab Mouse hybridoma supernatant (captured by anti-mouse IgG Fc)
B9: 75110_03I23A (antibody, V domains shown)
VH: QVQLQESGPGLVKPSETLSLTCTASGGSITSYYWNWIRQPAGKGLEWIGRIYTSGSTNYNPSLKSRVTMSVDTSKNQFSLKLSSVTAADTAVYYCARDPGYSDAFNIWGQGTMVTVSS
VL: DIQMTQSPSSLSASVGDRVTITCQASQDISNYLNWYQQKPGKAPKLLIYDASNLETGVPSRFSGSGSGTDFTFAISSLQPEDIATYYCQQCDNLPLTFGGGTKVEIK
notes: as for B8
B10: 75110_04P06A (antibody, V domains shown)
VH: B1 VH with S31N, Y100D, S101Y
VL: B1 VL with G9D, G24R, V29L, T32V, S77N, A85V, F92Y
notes: as for B8
B11: 75110_01K10A (antibody, V domains shown)
VH: B1 VH with G10A, S30R, S31N, Y100D, S101Y
VL: B1 VL with G9D, G24R, V29L, T32V, S66T, F92Y
notes: as for B8
B12: 75110_02I18A (antibody, V domains shown)
VH: B1 VH with L4V, S101Y
VL: B1 VL with G24R, T32S, A44S, Y50H, F63V, F92Y
notes: as for B8
B13: 75110_05F19A (antibody, V domains shown)
VH: B1 VH with S31N, M34V, A40P, S101D, M105L
VL: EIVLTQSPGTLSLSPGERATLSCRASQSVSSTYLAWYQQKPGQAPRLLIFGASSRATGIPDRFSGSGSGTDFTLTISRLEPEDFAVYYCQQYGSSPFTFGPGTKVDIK
notes: as for B8
B14: 75110_05G15A (antibody, V domains shown)
VH: QVQLQESGPGLVKPSQTLSLTCTVSGGSISSGGYFWSWIRQHPGKGLEWIGCIYYSGSTYYIPSLKSRVTISVDTSKNQFSLKLRSVTAADTAVYYCARDGYDYWYFDLWGRGTLVTVSS
VL: not shown
B15: 75110_01C18A (antibody, V domains shown)
VH: EVQLVESGGGLIQPGGSLRLSCAASGFTVSSNYMNWVRQAPGKGLEWVSVIYAGDNTYSADSVKGRFTISRDNSNNTLCLQMNSLRAEDTAVYYCAREGGTTGAFDIWGQGTMVTVSS
VL: B6 VL with S30N, F54L, T80P, A91G, R103K
notes: as for B8
B16: 75110_04G02A (antibody, V domains shown)
VH: not shown
VL: DIVMTQSPDSLAVSLGERATINCKSSQSVLYSSNNKNYLAWYQQKPGQPPKLLFYWASARESGVPDRFSGSGSGTDFTLTISSLQAEDVALYYCQQYFGSFPTFGQGTKLEIK
notes: as for B8

Molecular target: T1, human CD4 on cells (SKW3 cells; human PBMCs) (human, UniProt P01730 26-458)
T1 construct: whole, on cells; The SKW3 CD4 knockout cells served as the negative cell line; also called hCD4
Test: FACS confirmation, supernatant on human PBMCs, anti-mFc 647

Row | Binder | PBMCs CD4+ percent bound of viable [%]
1 | B1 | 31
2 | B2 | 35
3 | B3 | 30
4 | B4 | 33
5 | B5 | 29
6 | B6 | 32
7 | B7 | 32

Molecular target: T2, Rhesus macaque CD4-HIS (Acro Biosystems, Cat. CD4-C52H7) (rhesus macaque, UniProt P16003 26-390)
T2 construct: Bought reagent; also called Rhesus CD4; rhesus CD4-HIS; not shown: His tag
T2 sequence (P16003 26-390 limits assumed): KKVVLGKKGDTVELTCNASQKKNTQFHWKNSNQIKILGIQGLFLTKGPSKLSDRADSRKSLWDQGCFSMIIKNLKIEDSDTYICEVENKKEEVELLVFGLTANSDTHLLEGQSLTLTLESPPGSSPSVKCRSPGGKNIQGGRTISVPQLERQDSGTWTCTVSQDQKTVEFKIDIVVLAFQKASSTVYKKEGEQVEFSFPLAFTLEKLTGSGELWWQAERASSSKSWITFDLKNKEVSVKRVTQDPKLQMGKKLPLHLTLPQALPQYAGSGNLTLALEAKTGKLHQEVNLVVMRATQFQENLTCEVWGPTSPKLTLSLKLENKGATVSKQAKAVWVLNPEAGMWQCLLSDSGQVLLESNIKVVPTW
Test: BLI Octet, mAb on anti-mouse Fc sensor, rhesus CD4-HIS 25-100 nM

Row | Binder | binding result
8 | B8 | no binding (tested: 100 nM)
9 | B9 | no binding (tested: 100 nM)
10 | B10 | no binding (tested: 100 nM)
11 | B11 | no binding (tested: 100 nM)
12 | B12 | no binding (tested: 100 nM)
13 | B13 | no binding (tested: 100 nM)
14 | B14 | no binding (tested: 100 nM)
15 | B15 | no binding (tested: 100 nM)
16 | B16 | no binding (tested: 100 nM)

Molecular target: T1, human CD4 on cells (SKW3 cells; human …)
Test: FACS confirmation, supernatant on human PBMCs, anti-mFc 647, CD4+ gate

Row | Binder | PBMCs CD4+ gate RL1 Binding
17 | B1 | 246000
18 | B2 | 303000
19 | B3 | 225000
20 | B4 | 179000
21 | B5 | 292000
22 | B6 | 263000
23 | B7 | 224000

Molecular target: T1, human CD4 on cells (SKW3 cells; human …)
Test: FACS confirmation, supernatant on SKW3 WT cells, anti-mFc 647; background gMFI 3300

Row | Binder | gMFI, SKW3 WT anti-mFc 647 [gMFI]
24 | B1 | 18600
25 | B2 | 23100
26 | B3 | 23000
27 | B4 | 13000
28 | B5 | 22000
29 | B6 | 19000
30 | B7 | 19200

Molecular target: T1, human CD4 on cells (SKW3 cells; human …)
Test: FACS confirmation, supernatant on SKW3 WT cells, anti-hu Kappa FITC; background gMFI 2500

Row | Binder | gMFI, SKW3 WT anti-hu Kappa FITC [gMFI]
31 | B1 | 5230
32 | B2 | 5720
33 | B3 | 6270
34 | B4 | 4060
35 | B5 | 6010
36 | B6 | 4930
37 | B7 | 5850

Molecular target: T1, human CD4 on cells (SKW3 cells; human …)
Test: FACS primary screen, non-clonal supernatant; SKW3 vs SKW3 CD4 KO cells, anti-mouse Fc 647 detection

Row | Binder | SKW3 WT vs KO, anti-mFc-647 (ratio)
38 | B1 | 2.8
39 | B2 | 3.1
40 | B3 | 3
41 | B4 | 3.1
42 | B5 | 4.8
43 | B6 | 3.6
44 | B7 | 2.6

Molecular target: T1, human CD4 on cells (SKW3 cells; human …)
Test: FACS binning on SKW3 cells after supernatant; competitor OKT4-A488; background 2163, max binding 8200

Row | Binder | OKT4 A488 signal (FACS binning)
45 | B1 | 9770
46 | B2 | 9590
47 | B3 | 10400
48 | B4 | 9090
49 | B5 | 12700
50 | B6 | 9840
51 | B7 | 9980

Molecular target: T1, human CD4 on cells (SKW3 cells; human …)
Test: FACS primary screen, non-clonal supernatant; SKW3 vs SKW3 CD4 KO cells, anti-human Kappa FITC detection

Row | Binder | SKW3 WT vs KO, anti-hKappa-FITC (ratio)
52 | B1 | 1.6
53 | B2 | 1.6
54 | B3 | 1.6
55 | B4 | 1.4
56 | B5 | 1.9
57 | B6 | 1.6
58 | B7 | 1.7

Molecular target: T1, human CD4 on cells (SKW3 cells; human …)
Test: FACS binning on SKW3 cells after supernatant; competitor RPA-T4-PE-Dazzle 594; background 783, max binding 15000

Row | Binder | RPA-T4-PE-Dazzle 594 signal (FACS binning)
59 | B1 | 3090
60 | B2 | 2510
61 | B3 | 2480
62 | B4 | 6880
63 | B5 | 1660
64 | B6 | 2830
65 | B7 | 2590

Molecular target: T3, huCD4-HIS (human, UniProt P01730 26-390, limits assumed)
T3 construct: Named only in the head of the Ibalizumab ELISA binning column; Neither the source nor the construct limits are told in this stretch; not shown: HIS tag
Test: ELISA binning, competitor Ibalizumab; 100 ng/mL huCD4-HIS, anti-HIS HRP detection; background 45, max binding 3000000

Row | Binder | Ibalizumab ELISA binning signal
66 | B1 | 869000
67 | B2 | 1.7e+06
68 | B3 | 1.42e+06
69 | B4 | 1.58e+06
70 | B5 | 2260
71 | B6 | 385000
72 | B7 | 293000

Molecular target: T1, human CD4 on cells (SKW3 cells; human …)
Test: FACS binning on SKW3 cells after supernatant; competitor OKT4a, anti-hu A647 secondary; background 5000, max binding 35000

Row | Binder | OKT4a anti-hu A647 signal (FACS binning)
73 | B1 | 36000
74 | B2 | 38900
75 | B3 | 29900
76 | B4 | 40100
77 | B5 | 14300
78 | B6 | 37200
79 | B7 | 34100

Reference: US20220112288A1 (published 2022)
